# ± gives the uncertainty stated by the source.
# Assay: amyloid nucleation score (Sup35N fusion, yeast selection) (log enrichment); library NNK2; higher = more nucleation; inactive = no reads after selection
# Summary of the method: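 The nucleation score is a DiMSum log enrichment of output over input reads, centred on the mode score of non-aggregating sequences. Sequences under 100 input reads were excluded, and reads came from Illumina sequencing of plasmid inserts. Psi-negative yeast expressing Sup35N fused to peptides of 20 random codons were induced with 100 μM copper sulfate for 24 hours and grown 7 days at 30°C on medium lacking adenine and uracil. Random libraries had three technical output replicates.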
row,Substance,amyloid nucleation score
1,LARYFAKKLYNFYFLAFTGW,1.14 ± 0.29
2,VCCKLEFVSKHFRCVNGCDE,9.264 ± 0.055
3,MDCILNYFFVLLLGHGNLLM,-0.826 ± 0.54
4,LVLIFMDLSTGWLLSSISDI,2.33 ± 0.066
5,SVLQAYFRTWSQWIRYTCAG,-0.141 ± 0.31
6,MNLAVGWSHSPDQDLYYPML,-0.339 ± 0.56
7,LSVMLTYYGYMPNLYIVVRE,-0.713 ± 0.49
8,SMWWY,-0.505 ± 1.1
9,GGLCYEQNFYRYKKRRVLEL,3.47 ± 0.12
10,ETMNA,1.38 ± 0.16
11,DSDHFA,-1.58 ± 0.78
12,SHFRLCGGVWSSGLMCHGCF,1.61 ± 0.55
13,FSRWVVVLVVQLWSLALRSN,0.369 ± 0.65
14,DAMFFKCRMYRAVGRFFREG,0.02 ± 0.28
15,HGGFGYR,-0.336 ± 0.49
16,IFFVSDVESNIGRWLRRCFP,5.465 ± 0.054
17,MPQSSRFCTNSFGNRHRRSW,-0.343 ± 1.1
18,CHHQRYGSGFRLRNSLTVGS,0.015 ± 0.41
19,CGFSWCIDQLGTCLCKMVVV,-0.269 ± 0.28
20,RIGMPMMSAYTMGLVTDRFT,1.06 ± 0.4
21,NEYGLLYVFIPSSISPLADI,-1.5 ± 1.1

row,Substance,amyloid nucleation score
1,SFFVRKLIGNSYHN,1.89 ± 0.17
2,SSLDRKAVLAILSSTYLLRL,2.33 ± 0.23
3,CSSYHLEYKCYKHLLWFQSR,-0.306 ± 0.3
4,ALIGLWVGKPFPGGMLVLFM,0.24 ± 0.3
5,AWESIAFPCKVIYCYLRWTL,inactive
6,HAYYHLILDVLFPDGLWL,-0.938 ± 0.36
7,AWCFLYLLWLPGIQN,-0.226 ± 1.1
8,CFSKMFNV,-1.03 ± 0.53
9,NWSFASKVGLQMSKHAVTV,0.13 ± 0.42
10,CVMTRRSTKCFSMSLLSIWL,6.496 ± 0.056
11,YINLIWFSYMFGESFARGQR,4 ± 0.13
12,GMGIHFKASGRGPLIVGERD,0.75 ± 0.44
13,MHHIFYVGNLSW,inactive
14,AGPWGVSTFYAVHLLASLYP,-0.446 ± 0.79
15,PSVSRLIESNFCSSIRFFTH,-1.04 ± 0.64
16,KLIMFCDMLKVRSNNFRSRK,5.55 ± 0.077
17,LDVTHN,0.6 ± 0.35
18,HRAWSSVCSKYSSTGTRNLI,2.99 ± 0.14
19,VWLYKSLIINFDSKWRLS,6.268 ± 0.034
20,CSVYVCQLSLCCSVY,6.426 ± 0.06
21,YCDCPVNICRRFPGHEHRGV,inactive

row,Substance,amyloid nucleation score
1,ITTAYGGTIEMIRELNVASV,0.42 ± 0.47
2,WKSLGNSAVVIRLAS,-0.453 ± 1.1
3,LFIDDVPVDSITYGIWARGC,-1.5 ± 1.1
4,LRKVLW,-0.657 ± 0.79
5,GWAKPMGFNLILR,0.265 ± 0.31
6,NLNSFMVADYLYGDQVQKVF,0.138 ± 0.8
7,SSNFRLSLWYSKMM,-0.246 ± 0.36
8,QGLGTRLRDRLTVYCRFTAF,-0.69 ± 0.61
9,ETHYPPQ,0.033 ± 0.32
10,RRNFGGNLNWIDIVYEHVCL,0.09 ± 0.33
11,YFKDLKADVRVKMTKLEWPQ,2.67 ± 0.12
12,IVGCLGDGVRLL,-0.563 ± 0.29
13,RRYGKW,1.67 ± 0.41
14,RKCFDRRDYIPKIGQIRMSC,-0.48 ± 0.39
15,SFKRFQ,-0.347 ± 1.1
16,YLMVISEQIGDMCTISS,-1.36 ± 0.76
17,LSKYLMQYNTCRLESKS,-0.336 ± 0.16
18,WVFRK,-0.11 ± 0.76
19,NTIEGPRYYGTFAISNGVTQ,0.824 ± 0.48
20,VSPAHPNYFPISP,-0.889 ± 1.1
21,LCEEICLDFFMVRMFKHASY,1.63 ± 0.11

row,Substance,amyloid nucleation score
1,INLRIVSPIDLIVRWEDPTW,-1.44 ± 0.33
2,TLGPL,inactive
3,RSGVL,4.24 ± 0.066
4,SPGYTMKGFRWWLLSILGAR,inactive
5,KTLRCQRMVGYWGIRVDLGR,1.31 ± 0.42
6,SARVSWGCWHFAMYSRCIRQ,inactive
7,HYSIIWTAS,0.233 ± 0.46
8,DLRLYILNL,6.556 ± 0.055
9,FLFSIF,inactive
10,DILGFCLSCMLRVGLFTWGR,inactive
11,ANQSVYLAEAVYQAGIEGRD,0.358 ± 0.24
12,ISDAKRNCRCRSLPILIMVW,0.448 ± 0.24
13,TFNVPKMESVRPPG,0.796 ± 0.52
14,VLSYMFVYETMSEIFTFLVG,-0.586 ± 0.49
15,LVLENHWYLLVCRNPVQ,-0.213 ± 0.65
16,SAYVVLIEFVLNKVVGTLLR,-0.634 ± 0.63
17,CRFIRFHYLGYNLGSHHIYI,-0.902 ± 0.78
18,RILLLDLRYYCTTP,inactive
19,SESHICGV,-1.62 ± 0.62
20,SGCWIGRFLSSGVSMKVHVS,1.23 ± 0.4
21,NAKCNSTGKTCQFGCQYP,1.51 ± 0.39
